Data: the DeepSol protein solubility set

assay: soluble on expression in E. coli; label from the status in PepcDB or PDB records

| Sequence | soluble on expression in E. coli |
| --- | --- |
| MSLGGDNAEYGYVEQTHPAFIAGSFTTEKNAKSRYYLLAKYEMTVLQYSALTQAECPAPSNKQRLPVVSLSWMQAMEAADKYNIWLRENAADKLPKEDGVAGFLRLPTEVEWEFAARGGLNVSTAEFRDLRYPMPEGVNAYEWFAGTQSANGQLQLSGLLKPNPLGLHDMLGNVDEMMFEPFRLNKLDRQHGQAGGYVVRGGDFRTAQGELRSSLRKERNYYDAKAAATSKTTGVRLALASSTLTSRERVSSIETSWKKLGTGSGDTSQGEDKSAVQALGTLASGVADEALKEKLKALENQLRASNQQQEETRDQAIRASLNLGAFLCTKMLDDGKYLDFLQKNYALNCSAAEQDASCPMRKGKLDEQKDRLHKLSRYYASSLVDSATLYGEPLLARQIPVMGEIISRNEQLKELKPYLQTHWVNQQAFLKTQKIDTDAWLNRCKAVQEGHHHHHH | not soluble |
| MELLCCEGTRHAPRAGPDPRLLGDQRVLQSLLRLEERYVPRASYFQCVQREIKPHMRKMLAYWMLEVCEEQRCEEEVFPLAMNYLDRYLSCVPTRKAQLQLLGAVCMLLASKLRETTPLTIEKLCIYTDHAVSPRQLRDWEVLVLGKLKWDLAAVIAHDFLAFILHRLSLPRDRQALVKKHAQTFLALCATDYTFAMYPPSMIATGSIGAAVQGLGACSMSGDELTELLAGITGTEVDCLRACQEQIEAALRESLREASQTSSSPAPKAPRGSSSQGPSQTSTPTDVTAIHLLEHHHHHH | not soluble |
| MGSDKIHHHHHHMDREIFVSYSVSANSIAGWVAYGGSESFHDMSRGILAARIGIPRLLRMFRKFCIKSSWYVPGIVMETFPDEVRAIYADGHELGTHGYLHEYAPSMSYDQEERVIAKTAELVKDITGHNPYGHLPSQWEESVNTMRILMNHGYKYARGLEDDDFHPFYASTGRSWPRVDYSKLPETWMKPMNLGEKIDFVEIPINWFLNDGTYFNFNKHVPGKRPMSLSEVLENWKAAFDYVYREYEYAIFPVNIHPDTSGNPEVQIFHEKFISYILEHNGASFVSDSFIAEDFRKRYPFPHEFREKVDL | not soluble |
| MKSLQALFGGTFDPVHYGHLKPVETLANLIGLTRVTIIPNNVPPHRPQPEANSVQRKHMLELAIADKPLFTLDERELKRNAPSYTAQTLKEWRQEQGPDVPLAFIIGQDSLLTFPTWYEYETILDNAHLIVCRRPGYPLEMAQPQYQQWLEDHLTHNPEDLHLQPAGKIYLAETPWFNISATIIRERLQNGESCEDLLPEPVLTYINQQGLYR | soluble |
| GPGSMTDALAKPIRVCVLACSYEGSDSELRAYEGDLIQTPQNYFCSEDAQCTFHLELIKKATAYRQIRQLVMSGKFDVFYNQCDGAKDEDRAGVEVVEALEEFKVPYTGAISKYYEMSKPDMKLVAYYYNIATANYIVLAPGDDIESLCGDLQFPCIIKHISGYSSVGMDKSCKVYDMAHLVDRAARFMAEYQFALVEEFVNGDEATILACSDSTQPEGVRVFPPVQVAFPEGEDFKHFQLKWASYEGMKWTQVPQEDPAMQNMIDIARSAFKRMMGGVGYGRIDVRIDRQKNHKVVFLEINPNCGIMYPYGQEGSADWILRLNRGFQQREFAMLQIREAITRCQRERLLYVRRFDPVRGYHLRAAEDISVGTIIFQDECRPVRLCTKPYALQHFSKADYVDFQHNAWPVGRDGHYYALWDHDPAQWRAFNHSCEPNMSFAPMRSLDVVALRNIPKGEELTMDYRQFMDSTMPGFQCNCGTEKCEGFVSPGSLVDSPTAKIASQPTVALRHNIAVRLNPI | soluble |
| MAHHHHHHMPSMTSLLHKSLVVCFTSRISIFTSRPARGTAASAQLSLSSVPTAEHLECWTRQGDCVVGREEVACASCLGGYLAAGTISGLVLLYFCGAAESLVKELVRFNVGYGVTGMQLLPNDTLLVVTSVGDVWRWPLCDLLRNADASGAEGEKDEATEAEPTAAAHQPPLPLAAPRVPAAPSPQDKTLHTEPRVPATPEEVSYTQEGDTEDRSFSAHDTSTLAHTPQREREATARVEEIVTAVRVGADVPLVGARSDAEEQGTPSVHLSTASASLRALSASSENDGDEDHPDERGNDNTDMDARRAEPATVSCLPPPPPLASPTVSDKFEEKRGVGGVTRCATEFQRRTLYDPEQSTEEPGVVDMGVPSSAAGNSADLSHDGLRIAVSPPSTADNTAHHDAVLEDSGADVPEVAARGSAAGAAAVAAKEGTISDKHIQPFQRNHGDLSDTADVAQGTAHSSPGITSRQGTGMKAAVDDLEHEFAHAMKRLLGPTVGVEGLRKDRRMNPRKVAGVLANLTNQQAAAAGAKGLSYEAPSQPRALEGPNSTKLLEEKRTTLEAAVFDFEAYRQAHRLEVDALQYHHPVPAPTYTLQDRVFDAVESAGRLCDKEAGRATGAAGNAAATLPAAPEDELRDVTYGKVKWTLDPQIAEERRRGGPEMAQHHCDHLIFSTPYPAKATVLFAEEAPLMPSTAWEEVLLLPLPLPPAPSVF | soluble |
| YETQSREKQTRQQHEHMLMIVSNLYEETVHLKKTLKTTEKVTNDSYQLYREMKGKDVQLSGRILRLAGEIHEVKKDNQRIFAGLSKLISNESLRDYMRASDLLQLVIRMNEKYAEALGKQIDFYCSIEGEHDEYHVFIVLSIINNLTANAVEAMDEEGMVSLRLRKPNESMVEFQVEDNGPGISEKIGDIVFDPGFTSKYDEFGTPSTGIGLSYVKEIVTELEGDITFDNQQRGVVFAIRLPVRHLIQKG | not soluble |
| MGSDKIHHHHHHMKRLITQALDGEAGCILSDCEQYRYRLWREWDRSAPGLGFIMLNPSSADHQVNDPTITRCLQRALAGKYGRLEVVNLFPLRSTDPDGLLTHPAPLGDRPDRNECAIMDALDRCSLVICAWGAHKAAPARAAEVLRIVRMCGRGNLLYHLGLNKDGSPKHPLYIAKTKRPEPFTSIPVTQVNREYAPHR | not soluble |
| MGSDKIHHHHHHMREIEHAKYSRLKNAIYKDASVALLTQHGKEKVVTPILASAIGCEVTLVTGFDTDQLGTFTRDIPRAGTQIEAARKKARIGMELAHLPLGLASEGSFGPDPFTGLFSLNVEMVVWIDDTLGIEVVGVASGRTNFSHLLAANWEQAEAFARAIDFPEHGIVVRPRHEDDSRVRKGIADWESLREAFFWACGEADNGCVFLETDVRAHMNPMRMEIIASATRDLADKLATPCPVCNTPGFQIVERVPGLPCEGCGAPTRDTWADIHRCGRCGHQVALERLEKAAPAGHCDWCNP | not soluble |
| SLTRLEALKNIPRPAEECVEKTLNGEVPVDLFIARGHPNVRASNKRTLEVTKDVYLTRRGDCIIACCAEKAAGELSATVLEALMRSGLVVLIIDAGVVWDYVIGITPRSKPASKWRLVARKSNYVDDSTIAILADKAAYDLDRTLIRELKRGVPVRIIVGVCPGDSI | not soluble |
| MSLFRIQLRTMSSKTCKSDYPKEFVSFLNSSHSPYHTVHNIKKHLVSNGFKELSERDSWAGHVAQKGKYFVTRNGSSIIAFAVGGKWEPGNPIAITGAHTDSPALRIKPISKRVSEKYLQVGVETYGGAIWHSWFDKDLGVAGRVFVKDAKTGKSIARLVDLNRPLLKIPTLAIHLDRDVNQKFEFNRETQLLPIGGLQEDKTEAKTEKEINNGEFTSIKTIVQRHHAELLGLIAKELAIDTIEDIEDFELILYDHNASTLGGFNDEFVFSGRLDNLTSCFTSMHGLTLAADTEIDRESGIRLMACFDHEEIGSSSAQGADSNFLPNILERLSILKGDGSDQTKPLFHSAILETSAKSFFLSSDVAHAVHPNYANKYESQHKPLLGGGPVIKINANQRYMTNSPGLVLVKRLAEAAKVPLQLFVVANDSPCGSTIGPILASKTGIRTLDLGNPVLSMHSIRETGGSADLEFQIKLFKEFFERYTSIESEIVVEGHHHHHH | soluble |
| MVKTAVLMATYNGEIFISEQLDSIRQQTLKPDYVLLRDDCSTDETVNVVNNYIAKHELEGWKIVKNDKNLGWRLNFRQLLIDVLAYEVDYVFFSDQDDIWYLDKNERQFAIMSDKPQIEVLSADVDIKTMSTEASVPHFLTFSSSDRISQYPKVYDYQTFRPGWTIAMKRDFAQAIADNWTFGANISHDNLIETTASIIGNGYNLNESVGVHIRYGGNASGNSKFVLNWKSPKTQHITGLKTFVDFYETMQKVVNKYQNDVALNQRLAFEKERLEASKLSLIHNSAFVIKNWRLYNSNSGRMRDLLFAFKKLEHHHHHH | soluble |
| MKVLAIDTSNYVMGVSLIEEGNVIGEIITNLTKNHSVRLMPAVEQLLKECGVKPKELTKIVVAAGPGSYTGVRIGVTAAKTLAWSLQIPIVGVSSLEVVAANGANFNGLISPLFDGRRGQIYTGLYTYEGEDLTSIEEDRIILIVDWLQMLKDKGKPVLFIGNDVKLHKETIIEHLGDQAVFAPVTKNNPRPSELAFLGLQKEEQDVHSFVPSYLRLAEAETKWLESQNK | not soluble |
| SDWKEVLRRRLATPNTCPNKKKSEQELKDEEMDLFTKYYSEWKGGRKNTNEFYKTIPRFYYRLPAEDEVLLQKLREESRAVFLQRKSRELLDNEELQNLWFLLDKHQTPPMIGEEAMINYENFLKVGEKAGAKCKQFFTAKVFAKLLHTDSYGRISIMQFFNYVMRKVWLHQTRIGLSLYDVAGQGYLRESDLENYILELIPTLPQLDGLEKSFYSFYVCTAVRKFFFFLDPLRTGKIKIQDILACSFLDDLLELRDEELSKESQETNWFSAPSALRVYGQYLNLDKDHNGMLSKEELSRYGTATMTNVFLDRVFQECLTYDGEMDYKTYLDFVLALENRKEPAALQYIFKLLDIENKGYLNVFSLNYFFRAIQELMKIHGQDPVSFQDVKDEIFDMVKPKDPLKISLQDLINSNQGDTVTTILIDLNGFWTYENREALVANDSENSADLDDT | soluble |
| MTAPHDVPDLTGSGEYLVPDVLQPGLTLVLVGTAPSGISARARAYYANPENKFWRTLHAVGLTPRQLVPQEYATLPQYGLGLTDVAKRHSGVDAALPGEAWRPDELRRKVEHYRPRIVAFTSKRGASETLGVPTGKLPYGPQPQPLDWPAETELWVLPSTSPLGHNHFRLEPWQALGDRVRELRGAAEAGNPSPETPVL | soluble |
| MFYCRSGFEKECAGEIQDKATQLEVFGFPRLKNNTGYVLFECYQEGDADRLIREIKFNELIFARQMFAVAAEVSDLPKDDRISPILDALSDVDGVPCCGDIRIETPDTNEAKELLKFCRKFTVPMRQALRGKKMLTERDSNRIPVLHICFIAPGHCYVGYSYTNNNSQFFMGIPRLKFPADAPSRSTLKLEEAFHVFIPKEEWDDRLASGMWGVDLGACPGGWTYQLVKRSMFVHAIDNGMMAQSLMDTGQVKHHMVDGFKFEPPRKNVTWLICDMVEKPARVAHLMGEWLIKGWAKEALFNLKLPMKGRYDEVLQDIENLKDFLKKNGFQYKLQAKHLYHDREEITVHIQAISNISPH | not soluble |
| MSLRIRVPATTANLGPGFDSCGLALTLYLTLDIGAEADSWYIEHNIGGGIPHDETNVIIETALNLAPNLTPHHLVMTCDIPPARGLGSSSAAVVAGIELANTLAELNLSKEEKVRIAAEIEGHPDNVAPAVLGNWVVGAKLDGEDFYVRHLFPDCALIAFIPKAELLTSESRGVLPDTLPFKEAVQASSIANVMIAAILRNDMTLAGEMMERDLWHEKYRSQLVPHLAQIRDVAKNQGAYAACLSGAGPTVLVFAPRNLANKLQTSLQTLEIDADVLLLDVEGSGAEVFREGHHHHHH | soluble |
| MSLTKYIFVTGGVVSSIGKGIVAASLGRLLKNRGLKVTIQKFDPYINIDPGTMSPYQHGEVYVTDDGAETDLDLGHYERFIDINLNKYSNVTTGKIYSEVLRKERKGEYLGATVQVIPHITDALKEKIKRAATTTDSDVIITEVGGTVGDIESLPFLEALRQMKADVGADNVMYIHTTLLPYLKAAGEMKTKPTQHSVKELRGLGIQPNMLVIRTEQPAGQGIKNKLAQFCDVAPEAVIESLDVDHLYQIPLNLQAQNMDQIVCDHLKLDVPVADMTEWSAMVDKVMNLKKKTKIALVGKYVELPDAYLSVVEALKHSGYVNDTAIDLNWINANEVTPETVTDLLGDADGIIVPGGFGHRGTEGKIEAIRYARENDVPMLGICLGMQLTCVEYARHVLNLEGANSAELDPDTKYPVIDIMRDQIDIEDMGGTLRLGLYPCKLKSGSKTASAYSNQEVVQRRHRHRYEFNNAFRQQFEEAGFVFSGVSPDNRLVEVVELSDKKFFVAAQYHPELQSRPNRPEELYTAFITAAVENSQAHEGHHHHHH | soluble |
